Measurements from publication PMC13087489.

Target: CsERF061 (Citrus sinensis? (blood orange), UniProt A0ACB8LNY5 1-312)
Test: EMSA

B1: RE-mut-probe (dsDNA)
DNA 1: TGTCAAAAAAAAAAGCCACAAGGCAAATTCAAGTTG
DNA 2: CAACTTGAATTTGCCTTGTGGCTTTTTTTTTTGACA
binding result: no binding
